From patent US20070248536A1

Key:
human IgG Fc (human) [1] = experiment: method not given; given for comparison with the ELISA value
human IgG Fc (human) [2] = experiment: concentration-dependent ELISA, IgG Fc coated, apparent KD
human IgG Fc (human) [3] = experiment: SPR (BIACORE), value before the coupling to PE

| Binder | Kd (human IgG Fc (human) [1]) [nM] | Kd (human IgG Fc (human) [2]) [nM] | Kd (human IgG Fc (human) [3]) [nM] |
| --- | --- | --- | --- |
| Affilin variation SPC1-A7BB (designed binder) MGLISFSEDRAFQGRRYMCLTDCPNLQPYFSRCNSINVWSGCWMIYERPNYQGHQYFLRRGEYPDYQQWMGLSDSIRSCCLIPPHSGAYRMKIYDRDELRGQMSELTDDCLSVQDRFHLTEIHSLNVLEGSWILYEMPNYRGRQYLLRPGEYRRFLDWGAPNAKVGSLRRVMDLYLEHHHHHH | 280 | – | – |
| Affilin variation SPC1-A7_Cys (designed binder) MGLISFSEDRAFQGRRYMCLTDCPNLQPYFSRCNSINVWSGCWMIYERPNYQGHQYFLRRGEYPDYQQWMGLSDSIRSCCLIPPHSGAYRMKIYDRDELRGQMSELTDDCLSVQDRFHLTEIHSLNVLEGSWILYEMPNYRGRQYLLRPGEYRRFLDWGAPNAKVGSLRRVMDLYLESGGGGGGSCHHHHHHHHHH | – | 233 | 100 |
